Measured values taken from patent US20250154268A1 (NONA BIOSCIENCES SUZHOU, published 2025).
Like-named read-outs stand apart in the source and are kept apart here.

Experiments:
[1] = target: T1, cynomolgus monkey CD25 (cynomolgus monkey, UniProt H6WS54 22-272); experiment: flow cytometry, HEK293-cynoCD25 cells
T1 construct: whole, on cells; also called cynoCD25
T1 sequence: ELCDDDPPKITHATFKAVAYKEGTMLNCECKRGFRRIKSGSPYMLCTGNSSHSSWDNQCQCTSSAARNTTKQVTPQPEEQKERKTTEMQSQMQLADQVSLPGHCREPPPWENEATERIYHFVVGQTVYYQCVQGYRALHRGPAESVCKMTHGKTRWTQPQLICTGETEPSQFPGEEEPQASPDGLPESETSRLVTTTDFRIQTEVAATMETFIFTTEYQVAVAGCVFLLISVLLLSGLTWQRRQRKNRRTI
Experimental: (§1) Briefly, the CHOK1-huCD25 cells and HEK293-cynoCD25 cells were digested, the SU-DHL-1 cells, Karpas299 cells, Treg cells and Teff cells were collected, and the cells were resuspended in PBS containing 2% BSA. The cells were adjusted to a cell density of 1×10⁶ cells/mL, respectively. […] The cells were incubated at 4° C. for 1 hour in the dark. After the incubation, the cells were rinsed twice by adding pre-chilled PBS containing 2% BSA at 100 μL/well, and centrifuged at 500 g at 4° C. for 5 minutes, and the supernatant was discarded. […] The cells were washed twice by adding pre-chilled PBS containing 2% BSA at 100 μL/well, and centrifuged at 500 g at 4° C. for 5 minutes, and the supernatant was discarded. Finally, the cells were resuspended in pre-chilled PBS containing 2% BSA at 200 μL/well, and the fluorescence signal values were read using a BD CantoII flow cytometer.

[2] = target: T2, human CD25 (human, UniProt P01589 22-272); experiment: flow cytometry, Karpas299 cells
T2 construct: whole, on cells; Always presented on cells; also called huCD25; IL2Rα
T2 sequence (looked up): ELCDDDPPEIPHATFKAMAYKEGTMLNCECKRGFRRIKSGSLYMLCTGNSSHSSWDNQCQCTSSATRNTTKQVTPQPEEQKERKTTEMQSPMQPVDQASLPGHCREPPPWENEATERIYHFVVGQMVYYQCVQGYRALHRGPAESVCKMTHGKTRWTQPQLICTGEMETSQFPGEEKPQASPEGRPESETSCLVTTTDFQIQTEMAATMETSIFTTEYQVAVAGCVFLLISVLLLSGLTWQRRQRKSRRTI

[3] = target: T2, human CD25; experiment: flow cytometry, SU-DHL-1 cells
Experimental: as §1

[4] = target: T2, human CD25; experiment: flow cytometry, SU-DHL-1 cells; remark: listed apart in the source
Experimental: as §1

[5] = target: T2, human CD25; experiment: flow cytometry, Karpas299 cells; remark: listed apart in the source
[6] = target: T2, human CD25; experiment: flow cytometry, Karpas299 cells; remark: listed apart in the source
Experimental: as §1

[7] = target: T1, cynomolgus monkey CD25; experiment: flow cytometry, HEK293-cynoCD25 cells; remark: listed apart in the source
Experimental: as §1

[8] = target: T2, human CD25; experiment: flow cytometry, SU-DHL-1 cells; remark: listed apart in the source
Experimental: as §1

[9] = target: T1, cynomolgus monkey CD25; experiment: flow cytometry, HEK293-cynoCD25 cells; remark: listed apart in the source
Experimental: as §1

[10] = target: T2, human CD25; experiment: flow cytometry, SU-DHL-1 cells; remark: listed apart in the source
Experimental: as §1

[11] = target: T2, human CD25; experiment: flow cytometry, Karpas299 cells; remark: listed apart in the source
Experimental: as §1

[12] = target: T2, human CD25; experiment: flow cytometry, CHOK1-huCD25 cells
Experimental: as §1

B1: PR008014 (antibody, human IgG1, kappa, V domains shown)
VH: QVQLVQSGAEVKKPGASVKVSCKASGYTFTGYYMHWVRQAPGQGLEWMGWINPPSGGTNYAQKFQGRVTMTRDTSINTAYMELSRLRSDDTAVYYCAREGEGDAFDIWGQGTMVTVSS
VL: DFQMTQSPSTLSASVGDRVTITCRASQSISSWLAWYQQKPGKAPKLLIYEASSLKSGVPSRFSGSESGTEFTLTISSLQPDDFATYYCHQYLSYSTFGQGTKVEIKR
notes: PTM variant of PR006931 (VH: N54P, S60Y); human IgG1
[1]
  EC50: 1.63 nM
  Maximum MFI: 31500 MFI
[2]
  EC50: 30 nM
  Maximum MFI: 9510 MFI
[3]
  EC50: 1.36 nM
  Maximum MFI: 32800 MFI

B2: PR006984 (antibody, human IgG1, kappa, V domains shown)
VH: QVHLVESGGGVVQPGRSLRLSCAASGFTFSKYDMHWVRQAPGKGLEWVAVVWFDGINKSYIDSVRGRFTISRDNSKSTLYLQMNSLRDDDTAVYYCAREGVGDAFDIWGQGAMVTVSS
VL: DIQMTQSPSTLSASVGDRVTITCRASQSISSWLAWYQQKPGKAPKLLIYKASSLESGVPSRFSGSESGTEFTLTITSLQPNDFATYYCQQYNSYSTFGQGTRLEIKR
notes: Fully human recombinant IgG1, kappa; also called 180F6E8
[4]
  EC50: 6 nM
  Maximum MFI: 35300 MFI
[5]
  EC50: 55 nM
  Maximum MFI: 8720 MFI

B3: PR006931 (antibody, human IgG1, kappa, V domains shown)
VH: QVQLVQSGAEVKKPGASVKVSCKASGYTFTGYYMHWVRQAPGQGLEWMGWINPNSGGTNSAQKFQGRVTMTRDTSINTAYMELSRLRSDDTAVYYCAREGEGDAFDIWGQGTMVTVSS
VL: DFQMTQSPSTLSASVGDRVTITCRASQSISSWLAWYQQKPGKAPKLLIYEASSLKSGVPSRFSGSESGTEFTLTISSLQPDDFATYYCHQYNSYSTFGQGTKVEIKR
notes: Fully human recombinant IgG1, kappa; also called 171B2D12
[6]
  EC50: 40 nM
  Maximum MFI: 9450 MFI
[7]
  EC50: 6.25 nM
  Maximum MFI: 152000 MFI
[8]
  EC50: 8.48 nM
  Maximum MFI: 33700 MFI

B4: PR008016 (antibody, human IgG1, kappa, V domains shown)
VH: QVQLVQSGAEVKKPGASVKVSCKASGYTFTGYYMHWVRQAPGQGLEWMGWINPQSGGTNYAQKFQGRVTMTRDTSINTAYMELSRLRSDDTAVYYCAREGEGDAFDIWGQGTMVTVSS
VL: DFQMTQSPSTLSASVGDRVTITCRASQSISSWLAWYQQKPGKAPKLLIYEASSLKSGVPSRFSGSESGTEFTLTISSLQPDDFATYYCHQYMSYSTFGQGTKVEIKR
notes: PTM variant of PR006931 (VH:N54Q, S60Y); human IgG1
[1]
  EC50: 2.25 nM
  Maximum MFI: 27900 MFI
[2]
  EC50: 40 nM
  Maximum MFI: 8600 MFI
[3]
  EC50: 4.02 nM
  Maximum MFI: 34500 MFI

B5: PR006927 (antibody, human IgG1, kappa, V domains shown)
VH: QVQLQESGPGLVKPSETLSLTCTVSGGSIRSYYWSWIRQPPGKGLEWIGYIYYSGSTNYNPSLKSRVTISVDTSKNQFSLKLSSVTAADTAVYYCARDILTGYSDWFFDLWGRGTLVTVSS
VL: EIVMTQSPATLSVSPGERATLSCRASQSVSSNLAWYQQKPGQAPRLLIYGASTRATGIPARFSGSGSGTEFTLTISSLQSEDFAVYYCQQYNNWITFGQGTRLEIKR
notes: Fully human recombinant IgG1, kappa; also called 113D5A1
[6]
  EC50: 20.3 nM
  Maximum MFI: 10000 MFI
[7]
  EC50: 17.5 nM
  Maximum MFI: 90100 MFI
[8]
  EC50: 4.68 nM
  Maximum MFI: 27300 MFI

B6: PR005433 (antibody, human IgG1, kappa, V domains shown)
VH: EVQLLESGGGLVQPGGSLRLSCAASGFTFSSYAMSWVRQAPGKGLEWVSTLSGRGGSTYYADSVKGRFTISRDNSNNTLYLQMNSLRAEDTAVYYCAKEGYSSSYYEYFQHWGQGTLVTVSS
VL: EIVLTQSPATLSVSPGERATLSCRASQSISSNLAWYQQKPGQAPRLLIYGASTRATGIPARFSGSGSGTEFTLTISSLQSEDFAVYSCQQYNYWPLTFGGGTKVEIKR
notes: Fully human recombinant IgG1, kappa; Clone No. 308B6F9 is printed for both PR005433 and PR005435; also called 308B6F9
[9]
  EC50: 3.73 nM
  Maximum MFI: 60500 MFI
[10]
  EC50: 4.9 nM
  Maximum MFI: 44300 MFI
[11]
  EC50: 4.31 nM
  Maximum MFI: 24900 MFI
[12]
  EC50: 8.19 nM
  Maximum MFI: 22400 MFI

B7: PR005435 (antibody, human IgG1, kappa, V domains shown)
VH: QVQLQQSGPGLVKPSQTLSLTCAVSGDRVSNINAAWNWIRQSPSRGLEWLGRTYYRSKWYNDYAVSVKSRISINLDTSKDQFSLQLNPVTPEDTAVYYCARDPWEAFDYWGQGTLVTVSS
VL: EIVMTQSPATLSVSPGERATLSCRASQSVSSNLAWYQQKPGQAPRLLIYAASTRATGIPARFSGSGSGTEFTLTISSLQSEDFAVYFCQQYNDWSITFGQGTRLEIKR
notes: as for B6
[9]
  EC50: 4.15 nM
  Maximum MFI: 154000 MFI
[10]
  EC50: 97.6 nM
  Maximum MFI: 19500 MFI
[11]
  EC50: 65.4 nM
  Maximum MFI: 16200 MFI
[12]
  EC50: 15.2 nM
  Maximum MFI: 31700 MFI

B8: PR006930 (antibody, human IgG1, kappa, V domains shown)
VH: EVQLLESGGGLVQPGGSLRLSCAASEFTFSSYAMSWVRQAPGKGLEWVSTISGSGGNTYYADSVEGRFTISRDNSKNTLYLQMNSLRAEDTAVYYCAKEAYSSSWYEYFQHWGQGTLVTVSS
VL: EIVMTQSPATLSVSPGERATLSCRASQSVSDTLAWYQQKPGQAPRLLIYGASTRATGIPARFSGSGSGTEFTLTISSLQSEDFAVYYCQQYNYWPLTFGGGTKVEIRR
notes: Fully human recombinant IgG1, kappa; also called 170H1E12
[6]
  EC50: 2.12 nM
  Maximum MFI: 16400 MFI
[7]
  EC50: 3.25 nM
  Maximum MFI: 146000 MFI
[8]
  EC50: 2.2 nM
  Maximum MFI: 32000 MFI
